# Read-outs that look alike come from different tables or passages of the source.
# Key:
# Assay type in all cases: cell-based, human
# SUDHL4 cells = test: Alamar Blue cytotoxicity study; details: for IC50: Homo sapiens; for Combination Index (Chou-Talalay): 120 h
# Description: Cells were incubated with 0.25, 0.5, 1, 2.5 or 5 μg/ml of Humalutin in cell culture flasks and incubated at 37° C./5% CO2. After 18-20 hours cells were washed and resuspended in fresh medium. Cell bound activity after washing was measured using a calibrated gamma detector (Cobra II auto-gamma detector, Packard Instrument Company, Meriden, Conn., USA). Cell concentration and viability was also measured after washing using Guava ViaCount Cell Dispersal Reagent for Flow Cytometry (Merck GaA, Darmstadt, Germany) and measured in a Guava EasyCyte 12HT (Merck KGaA, Darmstadt, Germany) to determine how well the cells survived the incubation. Cells were seeded in 96 well plates. […]
# Cells were treated with either Humalutin, venetoclax or a combination of both and seeded into 96 well-plates. At each time point after treatment, cells were incubated with Alamar Blue (Thermo Fisher, DALL1100) for 4 hours and fluorescence measurements were performed using a multiplate reader Fluoroskan ascent FL to assess cell proliferation and viability. All experiments were done in duplicates using 2 samples in each experiment. Data were normalized to the untreated controls.
# Cells were incubated with either 0, 0.5 μg/ml or 1 μg/ml Humalutin and the same procedure as described before for treatment with Humalutin alone and venetoclax alone was followed.
# The Chou-Talalay model was used for synergy calculations using the Compusyn software. R (goodness of fit) was calculated for the individual treatments and should be over 0.90 in in vitro culture experiments in order to use with confidence the calculated combination index (CI). The CI is an indication of synergy: 0-0.9 is considered synergy. Synergysm grading was used as described in WO2006004917A2.
# Cells were incubated with 0.25, 0.5, 1, 2.5 or 5 μg/ml of Humalutin in cell culture flasks and incubated at 37° C./5% CO2. After 18-20 hours cells were washed and resuspended in fresh medium. Cell bound activity after washing was measured using a calibrated gamma detector (Cobra II auto-gamma detector, Packard Instrument Company, Meriden, Conn., USA). Cell concentration and viability were also measured after washing using Guava ViaCount Cell Dispersal Reagent for Flow Cytometry (Merck GaA, Darmstadt, Germany) and measured in a Guava EasyCyte 12HT (Merck KGaA, Darmstadt, Germany) to determine how well the cells survived the incubation. Cells were seeded in 96 well plates. Alamar blue viability measurements were performed 120 h after seeding.
# Cells were incubated with either 0 (control), 0.5 μg/ml or 1 μg/ml Humalutin for 18 to 20 hours. Cells were then washed and resuspended in fresh medium.
# [1] = test system: CD133 and CD44 at the DOHH2 cell surface; test: Expression of stem cell markers after RIT (flow cytometry); details: DOHH2, 6 MBq/mL for 18 h, up to 9 days post-RIT
# Description: Cells were harvested at 0, 2 h, 18 h and each day from 1 d to 10 d of RIT. At each time point, cells were fixed with PFA 4% for 10 minutes, washed twice with PBS and sterilely stored in PBS at 4° C. Stem cell markers were detected with anti-CD133-FITC (clone: AC133, Milteniy) and anti-CD44-APC (clone: IM7, Merck Millipore). 0.5×10^6 cells were saturated for 1 h in PBS-BSA 0.5%. Next cells were centrifuged and incubated with anti-CD133-FITC (2 μL) and anti-CD44-APC (0.125 μg) for 1 h at room temperature in the dark. Finally, cells were rinsed twice and analysed using Gallios® flow cytometer (Beckman Coulter).
# For a preliminary study, investigation of the expression of CD133 and CD44 at the surface of cells treated for 18 h with 6 MBq/mL ^177Lu-lilotomab and ^177Lu-rituximab was done.
# [2] = test system: CDK1 and its phosphorylations, p345-Chk1, Wee-1, Myt-1, CDK7 in Rec-1 cells; test: Protein expression by Western blot
# Description: (§1) Protein expression was assessed in 1×10^6 Ramos, DOHH2 or Rec-1 cells/mL grown in 12-well plates and exposed for 18 h to 0 and 6 MBq/mL of ^177Lu-lilotomab. Cells were harvested at 0, 2 h, 18 h, 1 d, 2 d and 3 d of RIT. At each time point, cells were rinsed and incubated in RIPA buffer (Santa Cruz) at 4° C. for 30 minutes. Cells were centrifuged and supernatant (containing proteins) were collected. Proteins were electrophoresed through SDS-PAGE using 12% poly-acrylamide gels and electrotransferred onto nitrocellulose membranes. Blots were incubated with anti-CDK1, anti-p-CDK1(Tyr15) (clone 10A11), anti-p-CDK1(Thr14), anti-p-CDK1(Thr161), anti-CDK7, anti-Wee-1 (clone D10D2), anti-Myt-1, anti-p-CHK1 (Ser345) and anti-human GAPDH (1/1000, Cell Signaling Technologies, Leiden, The Netherlands) primary antibodies. Blot were washed and incubated with horseradish peroxidase-conjugated anti-mouse Ig (115-036-072, Jackson ImmunoResearch) or with horseradish peroxidase-conjugated anti-rabbit Ig (7074, Cell Signaling). Signal detection of immunoblots was carried out using the enhanced chemiluminescence protocol according to the manufacturer's instructions (Clarity™ Western ECL blotting substrates, 1705061, BioRad). PXi analyser (Ozyme) was used to measure levels of protein expression.
# [3] = test system: CDK1 and its phosphorylations, p345-Chk1, Wee-1, Myt-1, CDK7 in DOHH2 cells; test: Protein expression by Western blot
# Description: as §1
# [4] = test system: CDK1 and its phosphorylations, p345-Chk1, Wee-1, Myt-1, CDK7 in Ramos cells; test: Protein expression by Western blot
# Description: as §1
molecule,measurement,setting,value
CC1(C)CCC(CN2CCN(c3ccc(C(=O)NS(=O)(=O)c4ccc(NCC5CCOCC5)c([N+](=O)[O-])c4)c(Oc4cnc5[nH]ccc5c4)c3)CC2)=C(c2ccc(Cl)cc2)C1 [venetoclax],IC50,"SUDHL4 cells; SU-DHL-4, read-out: IC50 at 120 h, SUDHL-4, 120 h incubation after seeding",2.42 µM
same,IC50,"SUDHL4 cells; SU-DHL-4, SUDHL4, 72 h incubation after seeding, read-out: IC50",3.66 µM
same,Combination Index (Chou-Talalay),"SUDHL4 cells; SUDHL-4, drug 10 μM + Humalutin 0.5 μg/ml",2.43
same,Combination Index (Chou-Talalay),"SUDHL4 cells; SUDHL-4, drug 10 μM + Humalutin 1 μg/ml",0.09
same,Combination Index (Chou-Talalay),"SUDHL4 cells; SUDHL-4, drug 40 μM + Humalutin 0.5 μg/ml",3.77
same,Combination Index (Chou-Talalay),"SUDHL4 cells; SUDHL-4, drug 40 μM + Humalutin 1 μg/ml",0.11
same,Combination Index (Chou-Talalay),"SUDHL4 cells; SUDHL-4, drug 80 μM + Humalutin 0.5 μg/ml",0.50
same,Combination Index (Chou-Talalay),"SUDHL4 cells; SUDHL-4, drug 80 μM + Humalutin 1 μg/ml",0.06
same,Combination Index (Chou-Talalay),"SUDHL4 cells; SUDHL-4, drug 100 μM + Humalutin 0.5 μg/ml",0.83
same,Combination Index (Chou-Talalay),"SUDHL4 cells; SUDHL-4, drug 100 μM + Humalutin 1 μg/ml",0.02
same,Combination Index (Chou-Talalay),"SUDHL4 cells; SUDHL-4, venetoclax 0.25 + Humalutin 0.5 μg/ml",0.01
same,Combination Index (Chou-Talalay),"SUDHL4 cells; SUDHL-4, venetoclax 0.25 + Humalutin 1 μg/ml",0.06
same,Combination Index (Chou-Talalay),"SUDHL4 cells; SUDHL-4, venetoclax 0.5 + Humalutin 0.5 μg/ml",0.003
same,Combination Index (Chou-Talalay),"SUDHL4 cells; SUDHL-4, venetoclax 0.5 + Humalutin 1 μg/ml",0.01
same,Combination Index (Chou-Talalay),"SUDHL4 cells; SUDHL-4, venetoclax 1 + Humalutin 0.5 μg/ml",0.01
same,Combination Index (Chou-Talalay),"SUDHL4 cells; SUDHL-4, venetoclax 1 + Humalutin 1 μg/ml",0.09
same,Combination Index (Chou-Talalay),"SUDHL4 cells; SUDHL-4, venetoclax 2.5 + Humalutin 0.5 μg/ml",0.02
same,Combination Index (Chou-Talalay),"SUDHL4 cells; SUDHL-4, venetoclax 2.5 + Humalutin 1 μg/ml",0.12
"Lutetium-177 [^177Lu]-lilotomab satetraxetan (conjugate, chains of the INN, looked up, 177Lu satetraxetan chelator conjugate) VH: EIQLQQSGPELVKPGASVKVSCKASGYSFTDYNMYWVKQSHGKSLEWIGYIDPYNGDTTYNQKFKGKATLTVDKSSSTAFIHLNSLTSEDSAVYYCARSPYGHYAMDYWGQGTSVTVSS VL: DIVMTQSHKLLSTSVGDRVSITCKASQDVSTAVDWYQQKPGQSPKLLINWASTRHTGVPDRFTGSGSGTDYTLTISSMQAEDLALYYCRQHYSTPFTFGSGTKLEIK",Proportion of cells expressing CD44 and CD133,[1],strongly increased
same,Level of phosphorylated CHK1 (Ser345),[2]; Rec-1,remained stable until 18 h before progressively decreasing
same,Activating pThr161 CDK1 phosphorylation,"[2]; Rec-1, 6 MBq/mL for 18 h",undetectable
same,CDK1 level,"[2]; Rec-1, 6 MBq/mL for 18 h",quite stable
same,Expression of Myt-1,"[2]; Rec-1, 18 h after treatment",decreased
same,Expression of Wee-1,"[2]; Rec-1, between 18 and 48 h",comparable in control and treated
same,Levels of CDK7,"[2]; Rec-1, compared with Ramos cells",stable or increased
same,Expression of Wee-1,[3]; DOHH2,became undetectable at 24 h post-treatment
same,Activating pThr161 CDK1 phosphorylation,"[3]; DOHH2, 6 MBq/mL for 18 h",persistent increase
same,CDK1 level,"[3]; DOHH2, 6 MBq/mL for 18 h",decreased in DOHH2 at 48 h and 72 h
same,Inhibitory pTyr15 and pThr14 CDK1 phosphorylations,"[3]; DOHH2, 6 MBq/mL for 18 h",dropped respectively at 24 h and 48 h
same,Expression of Myt-1,"[3]; DOHH2, 18 h after treatment",decreased
same,Level of phosphorylated CHK1 (Ser345),"[3]; DOHH2, at 18-24 h",increased
same,Levels of CDK7,"[3]; DOHH2, compared with Ramos cells",stable or increased
same,Activating pThr161 CDK1 phosphorylation,[4]; 6 MBq/mL for 18 h,transient low levels
same,CDK1 level,[4]; 6 MBq/mL for 18 h,quite stable
same,Inhibitory pTyr15 and pThr14 CDK1 phosphorylations,[4]; 6 MBq/mL for 18 h,high persistent levels
same,Expression of Myt-1,[4]; 18 h after treatment,decreased
same,Level of phosphorylated CHK1 (Ser345),[4]; at 18-24 h,increased
same,Expression of Wee-1,[4]; between 18 and 48 h,comparable in control and treated

# From patent US20210106703A1, “RADIOIMMUNOCONJUGATES IN COMBINATION WITH OTHER DRUGS AS TREATMENT AGAINST NHL” (Nordic Nanovector ASA, priority 2017, published 2021)
